# Changes are numbered by the printed parent chain.
# T1: TNFR2-Fc (Enbrel) fusion protein (UniProt P20333 23-257)
# T1 construct: extracellular domain; Commercial product (Enbrel) used as coated antigen
# T1 sequence (looked up): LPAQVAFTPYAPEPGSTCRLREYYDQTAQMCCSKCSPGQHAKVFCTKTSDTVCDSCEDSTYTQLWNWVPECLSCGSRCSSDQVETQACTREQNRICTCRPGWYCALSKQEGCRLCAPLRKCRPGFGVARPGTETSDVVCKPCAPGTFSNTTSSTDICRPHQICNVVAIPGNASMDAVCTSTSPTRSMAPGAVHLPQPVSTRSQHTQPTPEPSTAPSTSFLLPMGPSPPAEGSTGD
# T2: TNFR2 (on Kym-1 cells) (UniProt P20333 23-461, limits assumed)
# T2 sequence (looked up): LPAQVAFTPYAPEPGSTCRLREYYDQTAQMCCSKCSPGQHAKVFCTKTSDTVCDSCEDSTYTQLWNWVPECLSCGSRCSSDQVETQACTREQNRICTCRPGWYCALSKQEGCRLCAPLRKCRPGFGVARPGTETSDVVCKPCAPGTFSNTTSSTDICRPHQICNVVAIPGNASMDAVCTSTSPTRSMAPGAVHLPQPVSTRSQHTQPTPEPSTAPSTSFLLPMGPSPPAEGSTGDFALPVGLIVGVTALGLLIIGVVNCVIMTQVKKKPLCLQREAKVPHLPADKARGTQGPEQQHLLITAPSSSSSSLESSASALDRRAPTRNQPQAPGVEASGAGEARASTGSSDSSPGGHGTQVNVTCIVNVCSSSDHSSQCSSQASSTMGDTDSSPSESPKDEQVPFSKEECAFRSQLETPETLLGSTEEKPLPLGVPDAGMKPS
# B1: 3M6-IgG (antibody, V domains shown)
# VH: EVQLLESGGGLVQPGGSLRLSCAASGFTFSHYVMAWVRQAPGKGLEWVSSISSSGGWTLYADSVKGRFTISRDNSKNTLYLQMNSLRAEDTAVYYCTRGLKMATIFDYWGQGTLVTVSS
# VL: QSALTQPASVSGSPGQSITISCTGTSSDVGSYNVVSWYQQHPGKAPKLIIYEVSQRPSGVSNRFSGSKSGNTASLTISGLQTEDEADYYCSSYAGSSIFVIFGGGTKVTVL
# B2: Db3-43xhuU3-EHD2-Fab3-43-Fckih (bispecific antibody)
# light 1: not shown
# heavy 1: QVQLVQSGAEVKKPGSSVKVSCKASGGTFSGYTMNWVRQAPGQGLEWMGLINPYKGVSTYNGKFKDRVTITADKSTSTAYMELSSLRSEDTAVYYCARSGYYGDSDWYFDVWGQGTLVTVSSGGGGSQAGLTQPPAVSVAPGQTASITCGRDNIGSRSVHWYQQKPGQAPVLVVYDDSDRPAGIPERFSGSNYENTATLTISRVEAGDEADYYCQVWGITSDHVVFGGGTKLTVLASDFTPPTVKILQSSCDGGGHFPPTIQLLCLVSGYTPGTINITWLEDGQVMDVDLSTASTTQEGELASTQSELTLSQKHWLSDRTYTCQVTYQGHTFEDSTKKCADSNDKTHTCPPCPAPPVAGPSVFLFPPKPKDTLMISRTPEVTCVVVDVSHEDPEVKFNWYVDGVEVHNAKTKPREEQYNSTYRVVSVLTVLHQDWLNGKEYKCKVSNKGLPSSIEKTISKAKGQPREPQVCTLPPSRDELTKNQVSLSCAVKGFYPSDIAVEWESNGQPENNYKTTPPVLDSDGSFFLVSKLTVDKSRWQQGNVFSCSVMHEALHNHYTQKSLSLSPGK
# heavy 2: QVQLQQSGPGLVKPSQTLSLTCAISGDSVSSNRAAWNWIRQSPSRGLEWLGRTYYRSKWYNDYAQSLKSRITINPDTPKNQFSLQLNSVTPEDTAVYYCARDGQLGLDALDIWGQGTMVTVSSASTKGPSVFPLAPSSKSTSGGTAALGCLVKDYFPEPVTVSWNSGALTSGVHTFPAVLQSSGLYSLSSVVTVPSSSLGTQTYICNVNHKPSNTKVDKKVEPKSCGTDKTHTCPPCPAPPVAGPSVFLFPPKPKDTLMISRTPEVTCVVVDVSHEDPEVKFNWYVDGVEVHNAKTKPREEQYNSTYRVVSVLTVLHQDWLNGKEYKCKVSNKGLPSSIEKTISKAKGQPREPQVYTLPPCRDELTKNQVSLWCLVKGFYPSDIAVEWESNGQPENNYKTTPPVLDSDGSFFLYSKLTVDKSRWQQGNVFSCSVMHEALHNHYTQKSLSLSPGK
# light 2: QAGLTQPPAVSVAPGQTASITCGRDNIGSRSVHWYQQKPGQAPVLVVYDDSDRPAGIPERFSGSNYENTATLTISRVEAGDEADYYCQVWGITSDHVVFGGGTKLTVLGQPKAAPSVTLFPPSSEELQANKATLVCLISDFYPGAVTVAWKADSSPVKAGVETTTPSKQSNNKYAASSYLSLTPEQWKSHRSYSCQVTHEGSTVEKTVAPTECS
# notes: Four different polypeptides; also called bispecific, trivalent Diabody-Fab fusion protein targeting HER3 (3-43) and CD3 (huU3)
# B3: Db3-43xhuU3-EHD2-scFv3-43-Fckih (bispecific antibody)
# light: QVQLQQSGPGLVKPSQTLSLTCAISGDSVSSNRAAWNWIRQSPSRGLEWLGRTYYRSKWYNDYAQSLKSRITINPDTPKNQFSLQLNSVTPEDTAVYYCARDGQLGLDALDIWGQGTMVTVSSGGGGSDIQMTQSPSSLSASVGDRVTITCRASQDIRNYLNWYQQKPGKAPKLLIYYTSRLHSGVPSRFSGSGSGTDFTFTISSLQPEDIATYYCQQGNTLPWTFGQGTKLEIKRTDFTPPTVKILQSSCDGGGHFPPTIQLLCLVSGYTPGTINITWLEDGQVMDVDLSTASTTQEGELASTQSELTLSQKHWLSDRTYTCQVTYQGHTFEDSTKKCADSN
# heavy: B2 heavy 1
# chain: QVQLQQSGPGLVKPSQTLSLTCAISGDSVSSNRAAWNWIRQSPSRGLEWLGRTYYRSKWYNDYAQSLKSRITINPDTPKNQFSLQLNSVTPEDTAVYYCARDGQLGLDALDIWGQGTMVTVSSGGGGSGGGGSGGGGSQAGLTQPPAVSVAPGQTASITCGRDNIGSRSVHWYQQKPGQAPVLVVYDDSDRPAGIPERFSGSNYENTATLTISRVEAGDEADYYCQVWGITSDHVVFGGGTKLTVLAAADKTHTCPPCPAPPVAGPSVFLFPPKPKDTLMISRTPEVTCVVVDVSHEDPEVKFNWYVDGVEVHNAKTKPREEQYNSTYRVVSVLTVLHQDWLNGKEYKCKVSNKGLPSSIEKTISKAKGQPREPQVYTLPPCRDELTKNQVSLWCLVKGFYPSDIAVEWESNGQPENNYKTTPPVLDSDGSFFLYSKLTVDKSRWQQGNVFSCSVMHEALHNHYTQKSLSLSPGK
# notes: Three different polypeptides; also called bispecific, trivalent Diabody-scFv fusion protein targeting HER3 (3-43) and CD3 (huU3)
# B4: Db3-43xhu225-EHD2-Fc (bispecific antibody)
# heavy: EVQLVESGGGLVQPGGSLRLSCAASGFSLTNYGVHWVRQAPGKGLEWLGVIWSGGNTDYNTPFTSRFTISRDNSKNTLYLQMNSLRAEDTAVYYCARALTYYDYEFAYWGQGTTVTVSSGGGGSQAGLTQPPAVSVAPGQTASITCGRDNIGSRSVHWYQQKPGQAPVLVVYDDSDRPAGIPERFSGSNYENTATLTISRVEAGDEADYYCQVWGITSDHVVFGGGTKLTVLASDFTPPTVKILQSSCDGGGHFPPTIQLLCLVSGYTPGTINITWLEDGQVMDVDLSTASTTQEGELASTQSELTLSQKHWLSDRTYTCQVTYQGHTFEDSTKKCADSNDKTHTCPPCPAPPVAGPSVFLFPPKPKDTLMISRTPEVTCVVVDVSHEDPEVKFNWYVDGVEVHNAKTKPREEQYNSTYRVVSVLTVLHQDWLNGKEYKCKVSNKGLPSSIEKTISKAKGQPREPQVYTLPPSRDELTKNQVSLTCLVKGFYPSDIAVEWESNGQPENNYKTTPPVLDSDGSFFLYSKLTVDKSRWQQGNVFSCSVMHEALHNHYTQKSLSLSPGK
# light: QVQLQQSGPGLVKPSQTLSLTCAISGDSVSSNRAAWNWIRQSPSRGLEWLGRTYYRSKWYNDYAQSLKSRITINPDTPKNQFSLQLNSVTPEDTAVYYCARDGQLGLDALDIWGQGTMVTVSSGGGGSDIQLTQSPSFLSASVGDRVTITCRASQSIGTNIHWYQQKPGKAPKLLIKYASESISGVPSRFSGSGSGTEFTLTISSLQPEDFATYYCQQNNNWPTTFGAGTKLEIKRTDFTPPTVKILQSSCDGGGHFPPTIQLLCLVSGYTPGTINITWLEDGQVMDVDLSTASTTQEGELASTQSELTLSQKHWLSDRTYTCQVTYQGHTFEDSTKKCADSN
# notes: homodimeric Fc part; also called bispecific, tetravalent diabody fusion protein using EHD2
# B5: Db3-43xhu225-het1EHD2-Fc (bispecific antibody)
# heavy: B4 heavy with C336S
# light: B4 light with C251S, N276Q
# notes: also called Db3-43xhu225-hetEHD2-Fc
# B6: anti-TNFR2 IgG (antibody, V domains shown)
# VH: QVQLQQSGAEVKKPGSAVKVSCKASGGTFSSYAISWVRQAPGQGLEWMGRIIPILGIANYAQKFQGRVTITADKSTSTAYMELSSLRSEDTAVYYCARDGLGDAFDIWGQGTMVTVSS
# VL: QSALTQPRSVSGSPGQSITISCTGTSSDVGGYNYVSWYQQHPGKAPKLMIYDVSNRPSGVSNRFSGSKSGNTASLTISGLQAEDEADYYCSSYTSSSTLVVFGGGTKLTVL
# B7: hu225-IgG (antibody, V domains shown)
# VH: EVQLVESGGGLVQPGGSLRLSCAASGFSLTNYGVHWVRQAPGKGLEWLGVIWSGGNTDYNTPFTSRFTISRDNSKNTLYLQMNSLRAEDTAVYYCARALTYYDYEFAYWGQGTTVTVSS
# VL: DIQLTQSPSFLSASVGDRVTITCRASQSIGTNIHWYQQKPGKAPKLLIKYASESISGVPSRFSGSGSGTEFTLTISSLQPEDFATYYCQQNNNWPTTFGAGTKLEIK
# Key:
# HER3-Fc fusion protein = target: T3, HER3-Fc fusion protein (UniProt P21860 21-643); assay: ELISA, coated HER3-Fc, anti-human Fab-HRP
# T3 construct: range 21-643; Coated antigen in ELISA; not shown: Fc part of the fusion, not described
# HER3 (on tumor cells) [1] = target: T4, HER3 (on tumor cells) (UniProt P21860 20-1342, limits assumed); assay: flow cytometry on FaDu cells
# T4 construct: whole, on cells; also called HER3 on MCF-7, SKBR-3 (SKBR3) and FaDu cells
# HER3 (on tumor cells) [2] = target: T4, HER3 (on tumor cells); assay: flow cytometry on MCF-7 cells
# HER3 (on tumor cells) [3] = target: T4, HER3 (on tumor cells); assay: flow cytometry on SKBR-3 cells
# CD3 (on Jurkat cells) = target: T5, CD3 (on Jurkat cells) (UniProt P07766 23-207); assay: flow cytometry on CD3-expressing Jurkat cells
# T5 construct: whole, on cells; CD3 is a complex of several chains; only CD3 is printed; also called CD3-positive Jurkat cells; CD3-expressing cells (Jurkat)
# T5 sequence (P07766 23-207): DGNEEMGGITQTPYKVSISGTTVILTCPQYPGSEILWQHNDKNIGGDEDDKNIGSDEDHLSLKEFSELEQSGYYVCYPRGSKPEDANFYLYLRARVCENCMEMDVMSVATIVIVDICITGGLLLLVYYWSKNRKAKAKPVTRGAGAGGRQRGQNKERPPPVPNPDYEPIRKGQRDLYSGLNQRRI
# HER3-His [4] = target: T6, HER3-His (UniProt P21860 21-643); assay: simultaneous binding, flow cytometry: molecule titrated on CD3-positive Jurkat cells, HER3-His 300 nM added, PE anti-His
# T6 construct: range 21-643; also called His-tagged HER3; second antigen
# HER3 (on tumor cells) [5] = target: T4, HER3 (on tumor cells); assay: flow cytometry on HER3-expressing SKBR-3 cells
# HER3-His [6] = target: T6, HER3-His; assay: simultaneous binding ELISA: coated EGFR-Fc, Db titrated, HER3-His 300 nM added, anti-His-HRP
# EGFR-His = target: T7, EGFR-His (UniProt P00533 25-645); assay: ELISA, coated His-tagged EGFR ECD, anti-human Fc-HRP
# T7 construct: range 25-645; also called His-tagged EGFR
# HER3-His [7] = target: T6, HER3-His; assay: ELISA, coated His-tagged HER3 ECD, anti-human Fc-HRP
# [8] = target: T1, TNFR2-Fc (Enbrel) fusion protein; assay: ELISA, coated TNFR2-Fc (Enbrel), anti-human Fab-HRP
# TNFR2 (on Kym-1 cells) = target: T2, TNFR2 (on Kym-1 cells); assay: cell-based or functional assay
binder,measurement,setting,value
B1,EC50,HER3-Fc fusion protein,0.7 nM
same,EC50,HER3 (on tumor cells) [1],7.5 nM
same,EC50,HER3 (on tumor cells) [2],1.18 nM
same,EC50,HER3 (on tumor cells) [3],0.44 nM
B2,EC50,CD3 (on Jurkat cells),9.5 nM
same,EC50,HER3-His [4],13.8 nM
same,EC50,HER3 (on tumor cells) [5],0.03 nM
B3,EC50,CD3 (on Jurkat cells),8.1 nM
same,EC50,HER3-His [4],9 nM
same,EC50,HER3 (on tumor cells) [5],0.037 nM
B4,EC50,HER3-His [6],1.4 nM
same,EC50,EGFR-His,0.28 nM
same,EC50,HER3-His [7],0.35 nM
B5,EC50,HER3-His [6],0.56 nM
same,EC50,EGFR-His,0.24 nM
same,EC50,HER3-His [7],0.34 nM
B6,EC50,[8],0.7 nM
same,"EC50 of cell death induction, Kym-1 cells, MTT assay after 24 hours",TNFR2 (on Kym-1 cells),~30 nM
B7,EC50,EGFR-His,0.23 nM
